In the assay the target is T1, HER1 extracellular domain (human, UniProt P00533 25-645).
T1 construct: extracellular domain; also called HER1 coated chip surface
Briefly: SPR (Biacore T100), HER1 extracellular domain amine-coupled to CM5, antibody injected at 3.125-50 nM, 1:1 Langmuir model.

For orientation: Kd means a measure of binding affinity in units of concentration. Low values mean a tighter complex, high ones a looser complex.

B1: HER1-binding IgG1 antibody GA201 (antibody, V domains shown)
VH: QVQLVQSGAEVKKPGSSVKVSCKASGFTFTDYKIHWVRQAPGQGLEWMGYFNPNSGYSTYAQKFQGRVTITADKSTSTAYMELSSLRSEDTAVYYCARLSPGGYYVMDAWGQGTTVTVSS
VL: DIQMTQSPSSLSASVGDRVTITCRASQGINNYLNWYQQKPGKAPKRLIYNTNNLQTGVPSRFSGSGSGTEFTLTISSLQPEDFATYYCLQHNSFPTFGQGTKLEIKR
notes: IgG1, produced in 293-F cells; also called GA201 parental unmasked antibody; anti HER1 antibody GA201
With B1, the Kd was determined as 1 nM.

These data come from EP3433280B1 (F. Hoffmann-La Roche AG, dated 2023).
